# T1: hRpn10^305–377 (RAZUL, Rpn10 AZUL binding domain) (human, UniProt P55036 305-377)
# T1 sequence (looked up): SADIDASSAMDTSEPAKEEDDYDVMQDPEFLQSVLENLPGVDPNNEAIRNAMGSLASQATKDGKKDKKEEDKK
# T2: GST-hRpn10^305–377 (human, UniProt P55036 305-377)
# T2 sequence (looked up): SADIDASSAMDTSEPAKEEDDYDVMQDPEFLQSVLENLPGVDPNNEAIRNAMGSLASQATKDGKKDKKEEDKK
# Tests used:
# ubiquitin = ubiquitin (UniProt P0CG48 1-76); assay: NMR titration
# [1] = target: T1, hRpn10^305–377 (RAZUL, Rpn10 AZUL …); assay: ITC
# GST-hRpn10^305–377 = target: T2, GST-hRpn10^305–377; assay: SPR
Binder,binding result (ubiquitin),Kd [1] [nM],Kd (GST-hRpn10^305–377) [nM]
His-hRpn10^196–377 (domain or fragment) MLGLGASDFEFGVDPSADPELALALRVSMEEQRQRQEEEARRAAAASAAEAGIATTGTEDSDDALLKMTISQQEFGRTGLPDLSSMTEEEQIAYAMQMSLQGAEFGQAESADIDASSAMDTSEPAKEEDDYDVMQDPEFLQSVLENLPGVDPNNEAIRNAMGSLASQATKDGKKDKKEEDKK,binds,,
"E6AP AZUL domain, E6AP[24–87] (domain or fragment, human, UniProt Q05086 24-87, looked up) MKRAAAKHLIERYYHQLTEGCGNEACTNEFCASCPTFLRMDNNAAAIKALELYKINAKLCDPHP",,11.6,8.1

# Source: publication doi:10.1101/797027 (bioRxiv, 2019)
